# Experimental data: PMC11075132, “A transaminase-mediated aldol reaction and applications in cascades to styryl pyridines” (Catalysis Science & Technology, 2024)
# B1: CvTAm (Chromobacterium violaceum ATCC 12472) (protein)
# chain: MQKQRTTSQWRELDAAHHLHPFTDTASLNQAGARVMTRGEGVYLWDSEGNKIIDGMAGLWCVNVGYGRKDFAEAARRQMEELPFYNTFFKTTHPAVVELSSLLAEVTPAGFDRVFYTNSGSESVDTMIRMVRRYWDVQGKPEKKTLIGRWNGYHGSTIGGASLGGMKYMHEQGDLPIPGMAHIEQPWWYKHGKDMTPDEFGVVAARWLEEKILEIGADKVAAFVGEPIQGAGGVIVPPATYWPEIERICRKYDVLLVADEVICGFGRTGEWFGHQHFGFQPDLFTAAKGLSSGYLPIGAVFVGKRVAEGLIAGGDFNHGFTYSGHPVCAAVAHANVAALRDEGIVQRVKDDIGPYMQKRWRETFSRFEHVDDVRGVGMVQAFTLVKNKAKRELFPDFGEIGTLCRDIFFRNNLIMRACGDHIVSAPPLVMTRAEVDEMLAVAERCLEEFEQTLKARGLA
# notes: wild type, recombinant in E. coli, purified; homodimer; PLP enzyme; catalytic Lys288
# Substrate: NCCc1ccc(O)cc1
# Assay: purified protein
# Assay type: biochemical, Chromobacterium violaceum
# Details: apparent; transaminase reaction; 0.1 eq. PLP, 1 eq. pyruvate as amine acceptor; substrate 4a taken from context
protein,measurement,value
B1,Km,1.69 mM
same,kcat,6.04 s⁻¹
